Data on 2 molecules can be found in patent US20150297672A1 (TXP PHARMA, published 2015).

Where no end group is shown, it is not given here. [ ]: non-standard residue; d: D form.

Test [1] concerns the target T1, human melanocortin receptor type 1 (MC1r) (human, UniProt Q01726 1-317). As to the kind of experiment: cell-based or functional assay.
Test [2] has as its target T1, human melanocortin receptor type 1 ….

T1 sequence (Q01726 whole entry): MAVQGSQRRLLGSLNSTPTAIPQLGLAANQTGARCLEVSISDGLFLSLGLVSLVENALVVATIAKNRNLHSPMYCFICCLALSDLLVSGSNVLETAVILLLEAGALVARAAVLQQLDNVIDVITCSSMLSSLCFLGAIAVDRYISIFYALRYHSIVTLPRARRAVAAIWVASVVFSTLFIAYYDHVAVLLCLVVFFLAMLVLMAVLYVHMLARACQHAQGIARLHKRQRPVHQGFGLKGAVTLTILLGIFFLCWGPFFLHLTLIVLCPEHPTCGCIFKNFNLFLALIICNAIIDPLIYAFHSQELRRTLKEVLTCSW

B1: α-MSH analogue #1: Ac-(Ac-Lys-Lys-)Lys-Ser-Tyr-Ser-Met-Glu-His-Phe-Arg-Trp-Gly-Lys-Pro-Val-NH2 (Ac-(Ac-Lys-Lys-)Lys-SEQ ID NO:2) (peptide)
peptide: Ac-KSYSMEHFRWGKPV-NH2
chain: Ac-Lys-Lys
modifications: also: bond at chain A 1 to a chain's C-terminus via isopeptide: branch C-terminus to Lys1 ε-amine
notes: Branched peptide
In the case of B1, the “EC50, cAMP production” value in test [1] was 0.2 nM. The molecule also came in with an IC50 in test [2] of 0.0645 nM.

B2: γ-MSH analogue #2: Ac-(Ac-Lys-Lys-)Lys-Tyr-Val-Met-Gly-His-Phe-Arg-(D-Trp)-Asp-Arg-Phe-Gly-NH2 (D-Trp version of SEQ ID NO:8) (peptide)
peptide: Ac-KYVMGHFR[dW]DRFG-NH2
chain: Ac-Lys-Lys
modifications: also: bond at chain A 1 to a chain's C-terminus via isopeptide: branch C-terminus to Lys1 ε-amine
notes: Branched peptide; the second chain is the side branch on Lys1
In the case of B2, 0.606 nM corresponded to half-maximal inhibition in test [2] (IC50).
